# Data reported in US20190062422A1 (MorphoSys, published 2019).
# Residue numbers refer to the chain shown, from its start.
# B1: MOR12753 (antibody, V domains shown)
# VH: QVQLQQSGPGLVKPSQTLSLTCAISGDSVSSSSAAWNWIRQSPSRGLEWLGRIEYRSKWYNDYAVSVKSRITINPDTSKNQFSLQLNSVTPEDTAVYYCAREMYYYSGYGVFDVWGQGTLVTVSS
# VL: DIELTQPPSVSVSPGQTASITCSGDALGGEYVHWYQQKPGQAPVLVIYDDDKRPSGIPERFSGSNSGNTATLTISGTQAEDEADYYCSSFDTWTSYVFGGGTKLTVLG
# notes: Tested as human-mouse chimeric IgG2a (human variable, mouse constant regions); Potential N-linked glycosylation sites were removed by site-directed mutagenesis
# B2: MOR12742 (antibody, V domains shown)
# VH: QVQLVQSGAEVKKPGSSVKVSCKASGGTFSSYGISWVRQAPGQGLEWMGRIIPIFGTAYYAQKFQGRVTITADESTSTAYMELSSLRSEDTAVYYCARDMRYHDYWPYYYGSDQFDVWGQGTLVTVSS
# VL: DIVLTQPPSVSGAPGQRVTISCSGSSSNIGSDIVSWYQQLPGTAPKLLIYYNNLRPSGVPDRFSGSKSGTSASLAITGLQAEDEADYYCQSWDWASLAMVFGGGTKLTVLG
# notes: as for B1
# B3: MOR12744 (antibody, V domains shown)
# VH: QVQLVQSGAEVKKPGASVKVSCKASGYTFTSNFIHWVRQAPGQGLEWMGWISPYNGDTNYAQKFQGRVTMTRDTSISTAYMELSRLRSEDTAVYYCARESVYYGSDYGYNGMDIWGQGTLVTVSS
# VL: DIELTQPPSVSVSPGQTASITCSGDNLGEEYVSWYQQKPGQAPVLVIYDDTKRPSGIPERFSGSNSGNTATLTISGTQAEDEADYYCASWAFYSSQVFGGGTKLTVLG
# notes: as for B1
# B4: MOR12745 (antibody, V domains shown)
# VH: B3 VH
# VL: B3 VL with A88S, S89A, F92T, Y93W, S95V, Q96A
# notes: as for B1
# B5: MOR12746 (antibody, V domains shown)
# VH: B3 VH
# VL: B3 VL with A88S, A91T, F92H, Y93F, S95N, Q96I
# notes: as for B1
# B6: MOR12754 (antibody, V domains shown)
# VH: EVQLLESGGGLVQPGGSLRLSCAASGFTFSDYAMTWVRQAPGKGLEWVSVISYDGSLTYYADSVKGRFTISRDNSKNTLYLQMNSLRAEDTAVYYCARDPGVWWLSYLDYWGQGTLVTVSS
# VL: DIQMTQSPSSLSASVGDRVTITCRASQDIISYLAWYQQKPGKAPKLLIYGASNLQGGVPSRFSGSGSGTDFTLTISSLQPEDFAVYYCQQYMIAPPNTFGQGTKVEIKR
# notes: as for B1
# B7: mouse IL17C (ligand, UniProt Q8K4C5 17-194, looked up)
# chain: DPPSWGKPRSHRTLRCYSAEELSHGQAPPHLLTRSARWEQALPVALVASLEATGHRRQHEGPLAGTQCPVLRPEEVLEADTHERSISPWRYRIDTDENRYPQKLAVAECLCRGCINAKTGRETAALNSVQLLQSLLVLRRQPCSRDGTADPTPGSFAFHTEFIRVPVGCTCVLPRSTQ
# modifications: biotinylated in the receptor interaction, inhibition and serum stability assays (sites not given)
# notes: Bought recombinant protein; About 22 kDa reduced and about 40 kDa non-reduced on SDS-PAGE; Used plain (coated, ELISA) or biotinylated; also called biotinylated mouse IL17C; biotin-IL17C
# Target: T1, mouse IL-17B (mouse, UniProt Q9QXT6 23-180, limits assumed)
# T1 sequence (looked up): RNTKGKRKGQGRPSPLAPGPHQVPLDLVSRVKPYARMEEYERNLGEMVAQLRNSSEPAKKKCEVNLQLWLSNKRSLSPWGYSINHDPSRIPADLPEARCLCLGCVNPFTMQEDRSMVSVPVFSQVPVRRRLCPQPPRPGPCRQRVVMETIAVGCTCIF
# Test: ELISA, purified chimeric IgG2a
row,Binder,binding result
1,B1,no binding
2,B2,no binding

# Target: T2, human IL17C (human, UniProt Q9P0M4 19-197)
# T2 sequence: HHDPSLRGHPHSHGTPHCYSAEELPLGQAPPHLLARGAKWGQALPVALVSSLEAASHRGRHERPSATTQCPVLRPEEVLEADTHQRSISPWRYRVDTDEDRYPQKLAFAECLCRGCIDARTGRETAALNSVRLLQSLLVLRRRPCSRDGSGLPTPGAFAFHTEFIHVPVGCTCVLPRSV
# Test: ELISA, purified chimeric IgG2a
row,Binder,binding result
1,B1,no binding
2,B2,no binding

# Target: B7
# Test: solution equilibrium titration (SET), ECL based, monovalent Fab fragment (Fab_FH format)
# Experimental: Monovalent affinities of anti-IL17C antibodies were determined by solution equilibrium titration (SET) using Fab fragments. Affinity determination in solution was basically performed as described in the literature (Friquet et al., (1985) J. Immunol. Meth. 77: 305-19). In order to improve the sensitivity and accuracy of the SET method, it was transferred from classical ELISA to ECL based technology (Haenel et al. (2005) Anal Biochem. 339.1: 182-84). Binders were expressed and purified in Fab_FH format.
row,Binder,Kd [nM]
1,B3,0.053
2,B4,0.075
3,B5,0.056
4,B1,0.062
5,B6,4.1

# Target: B7
# Test: ELISA on biotin-IL17C captured on avidin: chimeric IgG2a incubated 24 h at 37°C in mouse serum against freshly diluted IgG2a
# Experimental: 96 well Maxisorp plates (Nunc; #442404) were coated with avidin at a concentration of 1 μg/ml in PBS overnight at 4° C. The next day, anti-IL17 chimeric IgG2a were incubated in mouse serum for 24 h at 37° C. at a final concentration 100 μg/mL. After the incubation step the antibodies were diluted 1:100 in LowCross buffer (Candor Bioscience; #100500). As a reference the same set of antibodies were freshly diluted in LowCross buffer+1% mouse serum and incubated for 30 min at RT. Avidin coated plates were incubated with blocking buffer (Superblock blocking buffer from Pierce, #37515) and subsequently 100 μL of 0.1 μg/mL biotin-IL17C in LowCross buffer was added to blocked wells. After a washing step a serial dilution of the serum-incubated and freshly diluted IgGs was added. Binding of IgGs was detected by anti-mouse-IgG2a POD conjugated detection antibody (diluted 1:5000 in LowCross buffer) using TMB One Component HRP as substrate. The reaction was stopped by adding 1M HCl and absorbance was measured at 450 nm.
row,Binder,Coefficient of variation (Mouse Serum Stability Assay 24h/37°C) [%]
1,B3,11.8
2,B4,15.9
3,B5,7.36
4,B6,17

# Target: T1, mouse IL-17B
# Test: ELISA, purified chimeric human/mouse IgG2a on msIL-17B
row,Binder,binding result
1,B3,no binding
2,B4,no binding
3,B5,no binding
4,B6,no binding

# Target: T2, human IL17C
# Test: ELISA, purified chimeric human/mouse IgG2a on huIL-17C
row,Binder,binding result
1,B3,no binding
2,B4,no binding
3,B5,no binding
4,B6,no binding

# Target: B7
# Test: ELISA, purified chimeric human/mouse IgG2a titrated on mouse IL17C, n=1-2
# Experimental: All purified chimeric human-mouse chimeric IgG2a antibodies were titrated on mouse IL17C for EC₅₀ determination in ELISA starting with a concentration of 100 nM. EC₅₀ values on mouse IL17C were determined in 1 to 3 independent experiments.
row,Binder,EC50 [nM]
1,B3,0.28
2,B4,0.4
3,B5,0.38
4,B6,0.4

# Target: B7
# Test: mIL17C - mIL-17RE inhibition assay (MSD): human/mouse IgG2a pre-incubated with biotinylated mouse IL17C, binding to coated mouse IL17RE/Fc detected by Streptavidin-ECL
# Experimental: To determine inhibitory activity of purified anti-IL17C human-mouse chimeric IgG2a in a mIL-17 RE interaction assay, Maxisorp™ 384 well MSD plates were coated with 30 μL mouse IL17RE/Fc at 75 ng/mL in PBS at 4° C. overnight. The next day 25 μL of a serial antibody dilution (concentrations from 0.001 to 100 nM) were pre-incubated for 30 min at RT with an equal volume of biotinylated mouse IL17C at 0.125 nM. After blocking of plates for 1 h with 2.5% BSA in PBST, preformed antibody-ligand complexes were added for 1 h to coated IL17RE/Fc and receptor binding was detected via Streptavidin-ECL using MSD Sector Imager.
# To characterize the antibodies in human/mouse IgG2a format in more detail, for each candidate IC₅₀ values were determined in the IL-17 receptor E inhibition assay as described herein above in up to 4 independent experiments.
row,Binder,IC50 [nM]
1,B3,0.012
2,B4,0.013
3,B5,0.023
4,B6,8.44

# Target: T3, mouse IL-17RB (mouse, UniProt Q9JIP3 18-286)
# T3 construct: extracellular domain; also called IL17 receptor B
# T3 sequence (looked up): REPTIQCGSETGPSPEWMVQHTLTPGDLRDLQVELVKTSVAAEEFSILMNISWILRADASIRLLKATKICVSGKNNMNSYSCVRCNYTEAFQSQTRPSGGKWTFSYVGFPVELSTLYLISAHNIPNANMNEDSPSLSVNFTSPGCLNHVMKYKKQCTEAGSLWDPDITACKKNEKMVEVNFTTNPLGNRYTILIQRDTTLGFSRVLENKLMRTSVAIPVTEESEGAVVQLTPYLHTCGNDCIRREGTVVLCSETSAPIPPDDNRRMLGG
# Test: MSD receptor interaction assay, coated receptor, biotinylated mouse IL17C, streptavidin detection
# Experimental: To test binding of mouse IL17 to its putative receptor, IL17 receptor E an interaction assay was set up. The assay setup is depicted in FIG. 1A. In brief, IL17 receptors B and E were coated on a Multi-array® 384-well plate Standard plate (Meso Scale Discovery; #L21XA-4) and biotinylated mouse IL17C was added. Binding of mouse IL17C to its receptor was measured via binding of Streptavidin in a MSD Sector Imager 6000 (Meso Scale Discovery, Gaithersburg, Md., USA).
row,Binder,binding result
1,B7,no binding
